Tests used:
[1] = molecular target: LCMV Gp61-80 peptide … presented by MHC-II of dendritic cells (lymphocytic choriomeningitis virus (LCMV)); assay: cell-based or functional assay
[2] = molecular target: SIINFEKL N4 peptide (OVA257-264) presented on MHC-I H-2Kb of dendritic cells (mouse); assay: cell-based or functional assay

LCMV Gp61-80 peptide … presented by MHC-II of dendritic cells (lymphocytic choriomeningitis virus (LCMV)), sequence (P07399 61-80): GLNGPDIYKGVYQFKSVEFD

For “TCR of OT-II CD4+ T cells, specific for the OVA323-339 peptide”, the percentage of OT-II CD4+ T cells biotinylated by peptide-pulsed DC-FT [1] was 1.68%.
In the case of “transgenic T cell receptor (TCR) of OT-I CD8+ T cells, specific for the SIINFEKL N4 of ovalbumin presented on MHC I”, the signal-to-background ratio of biotin labeling on OT-I CD8+ cells (iDC-FT pulsed with 10 nM peptide, flow cytometry) (ratio (signal:background)) [2] is reported as 10, the signal-to-background ratio of biotin labeling on OT-I CD8+ cells (iDC-FT pulsed with 100 nM peptide, flow cytometry) (ratio (signal:background)) [2] is reported as 66 and the signal/background ratio of biotinylated OT-I CD8+ T cells, DC-FT made by Method 1 (background: DC-enzyme primed with LCMV GP33-41) [2] is reported as 592. The signal/background ratio of biotinylated OT-I CD8+ T cells, DC-NHS-FT made by Method 2 (background: DC-enzyme primed with LCMV GP33-41) [2] was 9.2, the streptavidin-APC+ OT-I CD8+ cells, DC-FT made by Method 1 [2] was 77% and the streptavidin-APC+ OT-I CD8+ cells, DC-NHS-FT made by Method 2 [2] was 16%.
